From article PMC10053435
One block for each substance: values may come before it.

What was measured:
[1] = target: mature Epinephelus coioides mtHsp60 (EcHsp60), without the mitochondrial importing signal (Epinephelus coioides (grouper)); assay: SEC; protein homogenised and purified at 4°C (LT); Superdex S200pg 16/600, 25 mM Tris-HCl pH 7.6, 150 mM NaCl, 1 ml/min
[2] = target: mature Epinephelus coioides mtHsp60 (EcHsp60), without the mitochondrial importing signal (Epinephelus coioides (grouper)); assay: negative-stain TEM with single particle analysis; purified oligomeric EcHSP60 at 1 mg/ml, 2% uranyl acetate, 2D classification
[3] = target: mature Epinephelus coioides mtHsp60 (EcHsp60), without the mitochondrial importing signal (Epinephelus coioides (grouper)); assay: cross-linking; dimeric EcHsp60 at 0.6 mg/ml, BS^3 0.15 to 0.6 mM, 37°C 30 min, phosphate buffer pH 7.6 with 300 mM NaCl, SDS-PAGE
[4] = target: mature Epinephelus coioides mtHsp60 (EcHsp60), without the mitochondrial importing signal (Epinephelus coioides (grouper)); assay: SEC; protein homogenised and purified at room temperature (RT, 25°C); Superdex S200pg 16/600, 25 mM Tris-HCl pH 7.6, 150 mM NaCl, 1 ml/min
[5] = target: naïve EcHsp60 K266A (Epinephelus coioides (grouper)); assay: SEC; WT and mutated naïve EcHsp60 purified at 4°C; analytical Superdex 200 Increase 10/300 GL
[6] = target: naïve EcHsp60 R264AK266A (Epinephelus coioides (grouper)); assay: as above
[7] = target: naïve EcHsp60 R264AK266A (Epinephelus coioides (grouper)); assay: negative-stain TEM with single particle analysis; purified oligomeric EcHSP60 at 1 mg/ml, 2% uranyl acetate, 2D classification

- stoichiometry N [1]: 2
- stoichiometry N [2]: 7
- stoichiometry N [3]: 2
- stoichiometry N [4]: 7
Substance: mature Epinephelus coioides mtHsp60 (EcHsp60), without the mitochondrial importing signal (natural protein)

- stoichiometry N [5]: 7
Substance: naïve EcHsp60 K266A (natural protein)

- stoichiometry N [6]: 7
- stoichiometry N [7]: 7
Substance: naïve EcHsp60 R264AK266A (natural protein)
